Measured values taken from patent US20160130575, “SCREENING OF NUCLEIC ACID AGENTS VIA PARTICLE DISPLAY” (THE REGENTS OF THE UNIVERSITY OF CALIFORNIA, published 2016).

Legend:
[1] = target: Plasminogen activator inhibitor-1 (PAI-1) (Homo sapiens, UniProt P05121 P05121:24-402); assay: flow; FP-only particle negative control, 1 nM PAI-1; details: tags: His6; biotinylated (NHS-PEO4); Millipore
[2] = target: 4-1BB/TNFRSF9/CD137 Fc chimera (Homo sapiens, UniProt Q07011 Q07011:24-186); assay: flow; FP-only particle negative control, 4 nM 4-1BB; details: tags: Fc fusion; His6; biotinylated (NHS-PEO4); R&D Systems; chain copies: 2
[3] = target: Apolipoprotein E3 (ApoE3) (Homo sapiens, UniProt P02649 P02649:19-317); assay: flow; FP-only particle negative control, 3 nM ApoE; details: tags: His6; biotinylated (NHS-PEO4); R&D Systems
alpha-thrombin = alpha-thrombin (Homo sapiens, UniProt P00734;P00734 P00734:328-363,P00734:364-622); assay: flow; FP-only particle negative control, 20 pM thrombin

Measured: binding result

Chain of Apolipoprotein E3 (ApoE3) (P02649 19-317, one chain of several): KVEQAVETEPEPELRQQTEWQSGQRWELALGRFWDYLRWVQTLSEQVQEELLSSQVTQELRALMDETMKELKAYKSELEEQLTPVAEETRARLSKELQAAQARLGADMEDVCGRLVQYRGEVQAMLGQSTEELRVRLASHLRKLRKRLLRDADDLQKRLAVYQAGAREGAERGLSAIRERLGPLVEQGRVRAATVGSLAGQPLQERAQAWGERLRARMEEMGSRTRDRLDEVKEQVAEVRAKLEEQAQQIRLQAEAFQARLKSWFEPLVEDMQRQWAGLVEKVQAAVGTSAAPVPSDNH
Chain of Plasminogen activator inhibitor-1 (PAI-1) (P05121 24-402, one chain of several): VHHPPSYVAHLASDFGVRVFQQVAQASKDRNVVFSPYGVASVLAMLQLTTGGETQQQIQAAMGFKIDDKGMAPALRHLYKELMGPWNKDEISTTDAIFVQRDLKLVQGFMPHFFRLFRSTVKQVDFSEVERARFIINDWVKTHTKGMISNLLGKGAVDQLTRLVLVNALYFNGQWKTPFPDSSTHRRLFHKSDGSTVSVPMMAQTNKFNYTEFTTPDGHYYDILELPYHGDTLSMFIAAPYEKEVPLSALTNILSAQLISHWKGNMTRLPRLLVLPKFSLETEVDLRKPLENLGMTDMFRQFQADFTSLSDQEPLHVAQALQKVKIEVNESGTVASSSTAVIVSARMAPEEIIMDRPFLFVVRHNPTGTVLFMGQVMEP
Chain of 4-1BB/TNFRSF9/CD137 Fc chimera (Q07011 24-186, change not shown, one chain of several): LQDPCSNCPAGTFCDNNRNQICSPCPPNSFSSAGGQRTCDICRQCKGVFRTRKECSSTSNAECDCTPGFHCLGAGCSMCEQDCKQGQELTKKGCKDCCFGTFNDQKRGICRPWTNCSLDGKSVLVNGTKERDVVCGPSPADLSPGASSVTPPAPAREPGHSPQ

AGCAGCACAGAGGTCAGATG (ssDNA, 5'-amino-PEG18, coupled to magnetic particle) [Forward primer (FP) control]
no binding: all assays above
